Laboratory results taken from patent US20240360228A1 (BIOLEGEND, published 2024).
One block for each binder: values may come before it.

Tests used:
human CCR8 [1] = target: T1, human CCR8 (human, UniProt P51685 1-355); assay: flow blocking, PBMC CCR8+CD3+; competitor PE-AB12
T1 construct: Native CCR8 on human PBMC (CCR8+ CD3+ or CCR8+ CD4+ lymphocytes); also called chemokine (C-C motif) receptor 8
Experimental: (§1) For blocking studies, 100 μL of the cell suspension were incubated with 10 μg purified isotype control, AB1, AB2, AB3, AB4, AB5, AB8, AB9, AB10, AB11, AB12, AB13, AB14, AB15, and Commercial ABI antibodies, or isotype control, as blocking agents.
(§2) After incubation with the blocking agent, the cells were incubated with 0.25 μg of the indicated PE-conjugated antibody plus anti-human CD4 APC or anti-human CD3 for another 15 minutes in the dark and then washed 2 times with Cell Staining Buffer, and acquired in a FACSCanto II flow cytometer (BD Biosciences); the data was analyzed using FCS Express (De Novo Software); MFI correspond to the CCR8+ CD4+ lymphocytes or CCR8+ CD3+ lymphocytes.
(§3) Percentage original MFI was calculated by dividing the MFI of samples blocked with AB1, AB2, AB3, AB4, AB5, AB6, AB7, AB8, AB9, AB10, AB11, AB12, AB13, AB14, AB15, and Commercial ABI antibodies, by the MFI of samples blocked with the corresponding isotype control. This value was subtracted from 100 to get a blocking percentage. The formula is shown below: […]

human CCR8 [2] = target: T1, human CCR8; assay: flow blocking, PBMC CCR8+CD3+; competitor PE-AB15
Experimental: as §1, §2, §3

human CCR8 [3] = target: T1, human CCR8; assay: flow blocking, PBMC CCR8+CD4+; competitor PE-AB5
Experimental: as §1, §2, §3

human CCR8 [4] = target: T1, human CCR8; assay: flow blocking, PBMC CCR8+CD4+; competitor PE-AB15
Experimental: as §1, §2, §3

human CCR8 [5] = target: T1, human CCR8; assay: flow blocking, PBMC CCR8+CD3+; competitor PE-AB5
Experimental: as §1, §2, §3

human CCR8 [6] = target: T1, human CCR8; assay: flow blocking, PBMC CCR8+CD3+; competitor PE-AB11
Experimental: as §1, §2, §3

human CCR8 [7] = target: T1, human CCR8; assay: flow blocking, PBMC CCR8+CD3+; competitor PE-AB13
Experimental: as §1, §2, §3

human CCR8 [8] = target: T1, human CCR8; assay: flow blocking, PBMC CCR8+CD4+; competitor PE-AB11
Experimental: as §1, §2, §3

human CCR8 [9] = target: T1, human CCR8; assay: flow blocking, PBMC CCR8+CD3+; competitor PE-AB6
Experimental: as §1, §2, §3

human CCR8 [10] = target: T1, human CCR8; assay: flow blocking, PBMC CCR8+CD4+; competitor PE-AB13
Experimental: as §1, §2

human CCR8 [11] = target: T1, human CCR8; assay: flow blocking, PBMC CCR8+CD4+; competitor PE-AB3
Experimental: as §1, §2, §3

human CCR8 [12] = target: T1, human CCR8; assay: flow blocking, PBMC CCR8+CD3+; competitor PE-L263G8
Experimental: as §1, §2, §3

human CCR8 [13] = target: T1, human CCR8; assay: flow blocking, PBMC CCR8+CD4+; competitor PE-AB14
Experimental: as §1, §2

human CCR8 [14] = target: T1, human CCR8; assay: flow blocking, PBMC CCR8+CD4+; competitor PE-AB12
Experimental: as §1, §2, §3

human CCR8 [15] = target: T1, human CCR8; assay: flow blocking, PBMC CCR8+CD4+; competitor PE-AB6
Experimental: as §1, §2

human CCR8 [16] = target: T1, human CCR8; assay: flow blocking, PBMC CCR8+CD4+; competitor PE-AB2
Experimental: as §1, §2, §3

human CCR8 [17] = target: T1, human CCR8; assay: flow blocking, PBMC CCR8+CD3+; competitor PE-433H
Experimental: as §1, §2, §3

human CCR8 [18] = target: T1, human CCR8; assay: flow blocking, PBMC CCR8+CD4+; competitor PE-433H
Experimental: as §1, §2

human CCR8 [19] = target: T1, human CCR8; assay: flow blocking, PBMC CCR8+CD4+; competitor PE-AB10
Experimental: as §1, §2, §3

human CCR8 [20] = target: T1, human CCR8; assay: flow blocking, PBMC CCR8+CD3+; competitor PE-AB8
Experimental: as §1, §2, §3

human CCR8 [21] = target: T1, human CCR8; assay: flow blocking, PBMC CCR8+CD4+; competitor PE-AB4
Experimental: as §1, §2, §3

human CCR8 [22] = target: T1, human CCR8; assay: flow blocking, PBMC CCR8+CD3+; competitor PE-AB7
Experimental: as §1, §2, §3

human CCR8 [23] = target: T1, human CCR8; assay: flow blocking, PBMC CCR8+CD3+; competitor PE-AB10
Experimental: as §1, §2, §3

human CCR8 [24] = target: T1, human CCR8; assay: flow blocking, PBMC CCR8+CD4+; competitor PE-AB1
Experimental: as §1, §2, §3

human CCR8 [25] = target: T1, human CCR8; assay: flow blocking, PBMC CCR8+CD3+; competitor PE-AB14
Experimental: as §1, §2, §3

T1 sequence (P51685 whole entry): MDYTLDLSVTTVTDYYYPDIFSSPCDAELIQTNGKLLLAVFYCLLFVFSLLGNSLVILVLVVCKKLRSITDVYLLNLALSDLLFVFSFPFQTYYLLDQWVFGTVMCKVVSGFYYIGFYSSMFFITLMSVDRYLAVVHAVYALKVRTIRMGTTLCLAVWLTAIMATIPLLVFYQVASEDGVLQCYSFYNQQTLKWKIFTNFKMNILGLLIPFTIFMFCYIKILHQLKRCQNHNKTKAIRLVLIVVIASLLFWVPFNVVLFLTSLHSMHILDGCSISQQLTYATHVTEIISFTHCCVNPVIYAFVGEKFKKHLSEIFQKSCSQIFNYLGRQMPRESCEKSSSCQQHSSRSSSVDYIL

% Blocking (human CCR8 [1]): 48.4% | MFI (human CCR8 [1]): 527 | % Blocking (human CCR8 [2]): 45.2% | MFI (human CCR8 [2]): 471 | % Blocking (human CCR8 [3]): -8.42% | % Positive cells (human CCR8 [3]): 2.19% | % Blocking (human CCR8 [4]): 98.5% | % Positive cells (human CCR8 [4]): 0.02% | % Blocking (human CCR8 [5]): -11.8% | MFI (human CCR8 [5]): 1100 | % Blocking (human CCR8 [6]): 45.9% | MFI (human CCR8 [6]): 502 | % Blocking (human CCR8 [7]): -50.2% | MFI (human CCR8 [7]): 1330 | % Blocking (human CCR8 [8]): 98.5% | % Positive cells (human CCR8 [8]): 0.03% | % Blocking (human CCR8 [9]): -17.3% | MFI (human CCR8 [9]): 1080 | % Blocking (human CCR8 [10]): 93.4% | % Positive cells (human CCR8 [10]): 0.13% | % Blocking (human CCR8 [11]): -27.5% | % Positive cells (human CCR8 [11]): 2.18% | % Blocking (human CCR8 [12]): 13.1% | MFI (human CCR8 [12]): 585 | % Blocking (human CCR8 [13]): 96.9% | % Positive cells (human CCR8 [13]): 0.04% | % Blocking (human CCR8 [14]): 98.9% | % Positive cells (human CCR8 [14]): 0.02% | % Blocking (human CCR8 [15]): -14.4% | % Positive cells (human CCR8 [15]): 2.31% | % Blocking (human CCR8 [16]): -38.4% | % Positive cells (human CCR8 [16]): 2.27% | % Blocking (human CCR8 [17]): 53% | MFI (human CCR8 [17]): 417 | % Blocking (human CCR8 [18]): 92.6% | % Positive cells (human CCR8 [18]): 0.13% | % Blocking (human CCR8 [19]): 91.2% | % Positive cells (human CCR8 [19]): 0.13% | % Blocking (human CCR8 [20]): 26.9% | MFI (human CCR8 [20]): 870 | % Blocking (human CCR8 [21]): -19.7% | % Positive cells (human CCR8 [21]): 2.13% | % Blocking (human CCR8 [22]): 26.1% | MFI (human CCR8 [22]): 863 | % Blocking (human CCR8 [23]): 23.7% | MFI (human CCR8 [23]): 608 | % Blocking (human CCR8 [24]): -41.9% | % Positive cells (human CCR8 [24]): 2.2% | % Blocking (human CCR8 [25]): 46.4% | MFI (human CCR8 [25]): 463
B1: AB8 (antibody, V domains shown)
VH: AVQLVESGGGLVQPKESLKISCAASGFIFSNAAMYWVRQAPGKGLQWVARIRTKPKNYATYYIDSVKGRFTISRDDSKSMVYLQMDNLKTEDTAMYYCNTMGLTRAYYFDYWGQGVMVTVSS
VL: DIQMTQSPSFLSASVGDRVTINCKASQNINRYLNWYQQKLGEAPKLLIYNANSLQTGIPSRFSGSGSGTDFTLTIRSLQPEDVATYFCLQHNSWPWTFGGGTKLELK
notes: Hybridoma monoclonal; also called antibody 8; clone 8

% Blocking (human CCR8 [1]): 49.1% | MFI (human CCR8 [1]): 520 | % Blocking (human CCR8 [2]): 23.2% | MFI (human CCR8 [2]): 660 | % Blocking (human CCR8 [5]): -6.64% | MFI (human CCR8 [5]): 1050 | % Blocking (human CCR8 [6]): 53.2% | MFI (human CCR8 [6]): 434 | % Blocking (human CCR8 [7]): -0.34% | MFI (human CCR8 [7]): 888 | % Blocking (human CCR8 [9]): -23.2% | MFI (human CCR8 [9]): 1140 | % Blocking (human CCR8 [12]): 0.82% | MFI (human CCR8 [12]): 668 | % Blocking (human CCR8 [17]): 45.2% | MFI (human CCR8 [17]): 486 | % Blocking (human CCR8 [20]): 26.6% | MFI (human CCR8 [20]): 873 | % Blocking (human CCR8 [22]): 47.3% | MFI (human CCR8 [22]): 616 | % Blocking (human CCR8 [23]): 12.2% | MFI (human CCR8 [23]): 700 | % Blocking (human CCR8 [25]): 28.5% | MFI (human CCR8 [25]): 618
B2: AB7 (antibody, V domains shown)
VH: AVQLVESGGGLVQPKESLKISCAASGFTFSYAAMYWVRQTPGKGLEWVARIRTKPNNYATYYADSVKGRFTISRDDSKSMVYLQMDNLKSEDTAMYYCNIMGITRGYYFDYWGQGVMVTVSS
VL: DIQMTQSPSFLSASVGDRVTINCKASQNINRYLNWYQQQLGEAPKLLIYNANNLQTGIPSRFSGSRSGTDFTLTISSLQPEDVATYFCLQHNSWPWTFGGGTKLELK
notes: Hybridoma monoclonal; also called antibody 7; clone 7
